# According to the Human Domainome abundance scans (Beltran et al. 2025):
# ± gives the uncertainty stated by the source.
# B1: Chromodomain-helicase-DNA-binding protein 7, residues 2564 to 2605; numbered along this chain, Q9P2D1 (parent)
# chain: DPDTRIPVINLEDGTRLVGEDAPKNKDLVEWLKLHPTYTVDM
# Variants of: B1
# Test: abundance fitness (aPCA) (normalised: wild type 0, dead -1); higher = more abundant; growth selection in yeast, the domain comes from the species named
# Details: Homo sapiens
row,Variant,abundance fitness
1,DPDTRIPVINLEDGTRLVGEDAPKNKDLVEWLKLHPTYFVDM [T39F],-0.639 ± 0.11
2,DPDTRIPVINLEDGTRLVGEDAPKNKDLVEWLKLHPTYMVDM [T39M],-0.382 ± 0.11
3,DPDTRIPVINLEDGTRLVGEDAPKNKDLVEWLKLHPTYNVDM [T39N],-0.162 ± 0.064
4,DPDTRIPVINLEDGTRLVGEDAPKNKDLVEWLKLHPTYPVDM [T39P],-0.771 ± 0.11
5,DPDTRIPVINLEDGTRLVGEDAPKNKDLVEWLKLHPTYYVDM [T39Y],-0.347 ± 0.078
6,DPDTRIPVINLEDGTRLVGEDAPKNKDLVEWLKLHPTYRVDM [T39R],0.002 ± 0.06
7,DPDTRIPVINLEDGTRLVGEDAPKNKDLVEWLKLHPTYVVDM [T39V],-0.004 ± 0.063
8,DPDTRIPVINLEDGTRLVGEDAPKNKDLVEWLKLHPTYSVDM [T39S],-0.038 ± 0.072
9,DPDTRIPVINLEDGTRLVGEDAPKNKDLVEWLKLHPTYEVDM [T39E],0.046 ± 0.078
10,DPDTRIPVINLEDGTRLVGEDAPKNKDLVEWLKLHPTYLVDM [T39L],-0.42 ± 0.056
11,DPDTRIPVINLEDGTRLVGEDAPKNKDLVEWLKLHPTYWVDM [T39W],-0.835 ± 0.12
12,DPDTRIPVINLEDGTRLVGEDAPKNKDLVEWLKAHPTYTVDM [L34A],0.141 ± 0.077
13,DPDTRIPVINLEDGTRLVGEDAPKNKDLVEWLKCHPTYTVDM [L34C],-0.002 ± 0.06
14,DPDTRIPVINLEDGTRLVGEDAPKNKDLVEWLKEHPTYTVDM [L34E],0.048 ± 0.07
15,DPDTRIPVINLEDGTRLVGEDAPKNKDLVEWLKHHPTYTVDM [L34H],-0.037 ± 0.066
16,DPDTRIPVINLEDGTRLVGEDAPKNKDLVEWLKNHPTYTVDM [L34N],-0.014 ± 0.066
17,DPDTRIPVINLEDGTRLVGEDAPKNKDLVEWLKPHPTYTVDM [L34P],-0.328 ± 0.095
18,DPDTRIPVINLEDGTRLVGEDAPKNKDLVEWLKFHPTYTVDM [L34F],-0.334 ± 0.12
19,DPDTRIPVINLEDGTRLVGEDAPKNKDLVEWLKVHPTYTVDM [L34V],-0.039 ± 0.076
20,DPDTRIPVINLEDGTRLVGEDAPKNKDLVEWLKDHPTYTVDM [L34D],-0.042 ± 0.1

row,Variant,abundance fitness
1,DPDTRIPVINLEDGTRLVGEDAPKNKDLVEWLKIHPTYTVDM [L34I],-0.417 ± 0.099
2,DPDTRIPVINLEDGTRLVGEDAPKNKDLVEWLKYHPTYTVDM [L34Y],-0.251 ± 0.052
3,DPDTRIPVINLEDGTRLVGEDAPKNKDLVEWLKTHPTYTVDM [L34T],0.03 ± 0.093
4,DPDTRIPVINLEDGTRLVGEDAPKNKDLVEWLKGHPTYTVDM [L34G],-0.047 ± 0.045
5,DPDTRIPVINLEDGTRLVGEDAPKNKDLVEWLKKHPTYTVDM [L34K],-0.029 ± 0.39
6,DPDTRIPVINLEDGTRLVGEDAPKNKDLVEWLKMHPTYTVDM [L34M],0.011 ± 0.077
7,DPDTRIPVINLEDGTRLVGEDAPKNKDLVEWLKLHPTYTDDM [V40D],-0.295 ± 0.07
8,DPDTRIPVINLEDGTRLVGEDAPKNKDLVEWLKLHPTYTGDM [V40G],-0.367 ± 0.044
9,DPDTRIPVINLEDGTRLVGEDAPKNKDLVEWLKLHPTYTTDM [V40T],-0.08 ± 0.065
10,DPDTRIPVINLEDGTRLVGEDAPKNKDLVEWLKLHPTYTPDM [V40P],-0.166 ± 0.08
11,DPDTRIPVINLEDGTRLVGEDAPKNKDLVEWLKLHPTYTIDM [V40I],-0.135 ± 0.071
12,DPDTRIPVINLEDGTRLVGEDAPKNKDLVEWLKLHPTYTKDM [V40K],-0.11 ± 0.054
13,DPDTRIPVINLEDGTRLVGEDAPKNKDLVEWLKLHPTYTFDM [V40F],-0.59 ± 0.079
14,DPDTRIPVINLEDGTRLVGEDAPKNKDLVEWLKLHPTYTRDM [V40R],-0.065 ± 0.047
15,DPDTRIPVINLEDGTRLVGEDAPKNKDLVEWLKLHPTYTSDM [V40S],-0.144 ± 0.051
16,DPDTRIPVINLEDGTRLVGEDAPKNKDLVEWLKLHPTYTCDM [V40C],-0.152 ± 0.067
17,DPDTRIPVINLEDGTRLVGEDAPKNKDLVEWLKLHPTYTADM [V40A],0.135 ± 0.1
18,DPDTRIPVINLEDGTRLVGEDAPKNKDLVEWLKLHPTYTLDM [V40L],-0.381 ± 0.048
19,DPDTRIPVINLEDGTRLVGEDAPKNKDLVEWLKLHPTYTMDM [V40M],-0.379 ± 0.083
20,DPDTRIPVINLEDGTRLVGEDAPKNKDLVEWLKLHPTYTHDM [V40H],-0.372 ± 0.074

row,Variant,abundance fitness
1,DPDTRIPVINLEDGTRLVGEDAPKNKDLVEWLKLHPTYTNDM [V40N],-0.341 ± 0.071
2,DPDTRIPVINLEDGTRLVGEDAPKNKDLVEWLKLHPTYTQDM [V40Q],-0.108 ± 0.097
3,DPDTRIPVINLEDGTRLVGEDAPKNKDLVEWLKLHPTYTEDM [V40E],-0.238 ± 0.067
4,DPDTRIPVINLEDGTRLVGEDAPKNKDLVEWLKLHPTNTVDM [Y38N],-0.459 ± 0.073
5,DPDTRIPVINLEDGTRLVGEDAPKNKDLVEWLKLHPTVTVDM [Y38V],-0.652 ± 0.082
6,DPDTRIPVINLEDGTRLVGEDAPKNKDLVEWLKLHPTDTVDM [Y38D],-0.278 ± 0.078
7,DPDTRIPVINLEDGTRLVGEDAPKNKDLVEWLKLHPTSTVDM [Y38S],-0.297 ± 0.076
8,DPDTRIPVINLEDGTRLVGEDAPKNKDLVEWLKLHPTITVDM [Y38I],-1.02 ± 0.099
9,DPDTRIPVINLEDGTRLVGEDAPKNKDLVEWLKLHPTLTVDM [Y38L],-0.632 ± 0.082
10,DPDTRIPVINLEDGTRLVGEDAPKNKDLVEWLKLHPTGTVDM [Y38G],-0.327 ± 0.05
11,DPDTRIPVINLEDGTRLVGEDAPKNKDLVEWLKLHPTRTVDM [Y38R],-0.449 ± 0.064
12,DPDTRIPVINLEDGTRLVGEDAPKNKDLVEWLKLHPTWTVDM [Y38W],0.085 ± 0.12
13,DPDTRIPVINLEDGTRLVGEDAPKNKDLVEWLKLHPTPTVDM [Y38P],-0.916 ± 0.46
14,DPDTRIPVINLEDGTRLVGEDAPKNKDLVEWLKLHPTETVDM [Y38E],-0.387 ± 0.073
15,DPDTRIPVINLEDGTRLVGEDAPKNKDLVEWLKLHPTATVDM [Y38A],-0.447 ± 0.082
16,DPDTRIPVINLEDGTRLVGEDAPKNKDLVEWLKLHPTKTVDM [Y38K],-0.321 ± 0.11
17,DPDTRIPVINLEDGTRLVGEDAPKNKDLVEWLKLHPTTTVDM [Y38T],-0.331 ± 0.079
18,DPDTRIPVINLEDGTRLVGEDAPKNKDLVEWLKLHPTFTVDM [Y38F],-0.128 ± 0.059
19,DPDTRIPVINLEDGTRLVGEDAPKNKDLVEWLKLHPTCTVDM [Y38C],-0.445 ± 0.057
20,DPDTRIPVINLEDGTRLVGEDAPKNKDLVEWLKLHPTHTVDM [Y38H],-0.216 ± 0.061
